Reference: article PMC2945613 (Molecular cell, 2010)
Residue numbers refer to the chain shown, from its start. In names and notes the source's numbering stands. Each block holds one molecule with its values, some of them ahead of it.

What was measured:
Assay in all cases: fluorescence polarisation
[1] = target: eIF5-TAMRA (S. cerevisiae) (UniProt P38431)
eIF4B-Fl (S. cerevisiae) = eIF4B-Fl (S. cerevisiae) (UniProt P34167)
[2] = target: eIF1-TAMRA (S. cerevisiae) (UniProt P32911)
[3] = target: T1, eIF4G1 (yeast eIF4G, wild type) (S. cerevisiae, UniProt P39935 1-952)
T1 sequence (looked up): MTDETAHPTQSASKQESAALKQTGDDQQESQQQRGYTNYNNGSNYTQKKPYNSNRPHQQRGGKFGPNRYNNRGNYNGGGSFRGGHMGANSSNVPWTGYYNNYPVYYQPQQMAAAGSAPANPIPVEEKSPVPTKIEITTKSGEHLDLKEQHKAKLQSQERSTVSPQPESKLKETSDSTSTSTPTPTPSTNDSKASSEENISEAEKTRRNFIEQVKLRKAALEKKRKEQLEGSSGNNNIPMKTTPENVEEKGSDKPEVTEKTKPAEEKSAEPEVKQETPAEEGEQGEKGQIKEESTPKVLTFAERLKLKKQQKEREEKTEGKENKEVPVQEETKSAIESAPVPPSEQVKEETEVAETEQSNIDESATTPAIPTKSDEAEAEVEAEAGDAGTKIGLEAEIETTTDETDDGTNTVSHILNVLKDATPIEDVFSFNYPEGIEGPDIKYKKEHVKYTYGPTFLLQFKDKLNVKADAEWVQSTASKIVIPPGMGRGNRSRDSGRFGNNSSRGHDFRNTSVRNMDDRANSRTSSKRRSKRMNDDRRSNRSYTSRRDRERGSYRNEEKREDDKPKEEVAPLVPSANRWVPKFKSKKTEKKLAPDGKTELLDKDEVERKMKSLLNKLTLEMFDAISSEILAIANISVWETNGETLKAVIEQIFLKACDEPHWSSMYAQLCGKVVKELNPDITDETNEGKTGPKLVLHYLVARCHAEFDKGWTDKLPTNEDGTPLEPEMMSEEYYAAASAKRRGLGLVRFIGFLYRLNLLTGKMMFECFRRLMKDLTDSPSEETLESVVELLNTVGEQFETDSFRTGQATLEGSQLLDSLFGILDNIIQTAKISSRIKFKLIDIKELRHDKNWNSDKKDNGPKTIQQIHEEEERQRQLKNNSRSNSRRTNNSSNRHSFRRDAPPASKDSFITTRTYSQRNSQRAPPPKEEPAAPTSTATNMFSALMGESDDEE

eIF4E•eIF4G complex = target: T2, eIF4E•eIF4G complex (S. cerevisiae, UniProt P07260 1-213; P39935 1-952)
T2 sequence (looked up) 1: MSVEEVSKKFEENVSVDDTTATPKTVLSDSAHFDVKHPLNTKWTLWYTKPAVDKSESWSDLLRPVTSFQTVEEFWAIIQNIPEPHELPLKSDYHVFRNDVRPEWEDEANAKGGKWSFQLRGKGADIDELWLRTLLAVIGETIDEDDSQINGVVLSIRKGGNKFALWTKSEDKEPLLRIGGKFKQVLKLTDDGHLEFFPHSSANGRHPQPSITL
T2 sequence (looked up) 2: T1 sequence (looked up)

Sequence of eIF5-TAMRA (S. cerevisiae) (P38431 whole entry): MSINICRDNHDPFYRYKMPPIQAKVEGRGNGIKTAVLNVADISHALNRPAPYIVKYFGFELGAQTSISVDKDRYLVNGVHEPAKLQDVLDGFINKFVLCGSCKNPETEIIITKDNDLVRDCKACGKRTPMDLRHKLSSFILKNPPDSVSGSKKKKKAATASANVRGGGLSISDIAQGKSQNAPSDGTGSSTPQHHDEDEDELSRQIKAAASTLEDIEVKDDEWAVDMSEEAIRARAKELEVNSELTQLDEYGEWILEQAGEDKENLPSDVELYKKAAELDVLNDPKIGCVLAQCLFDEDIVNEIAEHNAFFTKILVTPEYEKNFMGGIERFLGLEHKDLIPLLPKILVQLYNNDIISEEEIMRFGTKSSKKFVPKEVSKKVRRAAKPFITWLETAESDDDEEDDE
Sequence of eIF1-TAMRA (S. cerevisiae) (P32911 whole entry): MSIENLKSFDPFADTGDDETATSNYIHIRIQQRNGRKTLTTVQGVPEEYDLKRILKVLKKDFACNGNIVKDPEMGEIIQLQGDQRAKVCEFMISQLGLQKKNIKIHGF

Kd [1]: 15 nM
Kd (eIF4B-Fl (S. cerevisiae)): 380 nM
Kd [2]: 115 nM
Molecule: eIF3 (yeast multisubunit complex)

Kd [3]: 200 nM
binding result (eIF4E•eIF4G complex): binds
B1: eIF4A-TAMRA (enzyme, S. cerevisiae, UniProt P10081 1-395, looked up)
chain: MSEGITDIEESQIQTNYDKVVYKFDDMELDENLLRGVFGYGFEEPSAIQQRAIMPIIEGHDVLAQAQSGTGKTGTFSIAALQRIDTSVKAPQALMLAPTRELALQIQKVVMALAFHMDIKVHACIGGTSFVEDAEGLRDAQIVVGTPGRVFDNIQRRRFRTDKIKMFILDEADEMLSSGFKEQIYQIFTLLPPTTQVVLLSATMPNDVLEVTTKFMRNPVRILVKKDELTLEGIKQFYVNVEEEEYKYECLTDLYDSISVTQAVIFCNTRRKVEELTTKLRNDKFTVSAIYSDLPQQERDTIMKEFRSGSSRILISTDLLARGIDVQQVSLVINYDLPANKENYIHRIGRGGRFGRKGVAINFVTNEDVGAMRELEKFYSTQIEELPSDIATLLN
modifications: TAMRA label, attached by expressed protein ligation

Kd [3]: < 15 nM
B2: eIF4E-Fl (yeast eIF4E S200C labelled with fluorescein maleimide) (natural protein, S. cerevisiae, UniProt P07260 1-213, looked up)
chain: T2 sequence (looked up) 1 with S200C
modifications: fluorescein maleimide on the introduced cysteine (S200C)
